Test results as given in the supplement of paper PMC10567573.

B1: NCK2 (parent)
chain: YTGPSSSGRFAGREWYYGNVTRHQ
B2: SPOPL (parent)
chain: PDDKLTLFCEVSVVQDSVNISGHT

Variants of: B1
Assay: protein stability index of a GFP-peptide fusion (GPS, HEK-293T) (PSI 1-6); higher = more stable
Conditions: c terminus: a fixed tail appended
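Also: lentivirally expressed fusions sorted by FACS into six bins by GFP to DsRed ratio, PSI derived from sequencing read proportions per bin multiplied by bin number.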

Protein stability index, by site and new letter:
T2: C 2.06, I 1.79, S 1.37, A 2.62, Q 1.5, N 2.19, L 1.7, W 2.35, P 3.3, G 2.44, H 1.88, V 2.32, R 1.67, Y 2.67, D 2.63, E 2.82, K 2.27, M 2.62, F 2.04
Y1: F 1.47, W 2.66, K 2.75, S 2.12, E 3.28, N 2.73, I 2.08, L 2.3, T 3.08, C 2.01, H 2.48, A 3.25, P 3.8, R 2.55, Q 2.96, M 2.57, G 2.46, V 2.93, D 3.3
G3: H 1.71, C 1.83, P 1.56, M 1.88, A 2.23, T 1.54, L 1.81, V 2.25, R 2.17, F 2.25, N 2.17, Q 1.78, K 2.08, D 2.38, E 2.34, I 2.07, S 2.04

Variants of: B2
Assay: as above
Conditions: c terminus: a fixed tail appended

Protein stability index: each site, then its substitutions
H23: A 2, G 2.01, I 2.41, W 5.02, V 2.03, R 2.71, L 1.69, Q 2.3, K 2.21, E 3.21, D 3.06, T 2.44, N 2.6, C 2, S 2.18, P 2.26
S17: Q 2.07, N 1.84, R 1.73, Y 2.99, P 2.85, V 1.03, T 1.85
V18: Y 1.77, T 2.81, I 2.09, S 2.82, P 2.7, D 3.67, L 1.57, Q 3.27, R 2.03, G 2.83, F 1.73, M 2.05, C 1.85, E 3.04, H 2.6, N 2.99, A 2.83, K 2.69
G22: A 1.08, E 3.28, H 1.66, Q 2.97, K 2.1, F 3.28, D 2.87, C 2.59, T 3.74, S 2.05, N 1.98, P 2.07
T24: W 3.64, S 2.38, Q 2.06, K 3.16, M 2.39, H 2.4, D 2.46, I 2.27, N 2.97, P 3.77, E 3.45, G 1.51, F 1.74, A 1.54
I20: G 3.21, Y 2.18, M 1.78, A 2.74, P 2.59, S 3.04, D 3.77, L 2.56, F 1.31, K 2.56, E 3.42, T 3.2, C 2.86, W 2.04, H 3.43, V 2.55, Q 3.49, N 3.08
N19: A 2.53, D 2.41, V 2.65, S 3.03, T 1.35, C 1.05, G 1.74, I 1.39, R 1.2, Q 1.39, P 2.29, K 1.92
S21: Y 1.85, I 3.25, C 1.5, T 3.16, E 2.44, R 2.47, H 1.61, G 2.74, L 1.68, N 2.2, Q 3.3, A 2.29, M 2.48, P 2.29, D 3.2
